Key:
[1] = molecular target: T1, human CD3 receptor on human cells (human, UniProt P07766 23-207; P09693 23-182; P04234 22-171); assay: flow cytometry on Jurkat cells (FIG. 5)
T1 construct: whole, on cells; also called human CD3 on cell surface; CD3 on Jurkat cells, clone E6-1

[2] = molecular target: T1, human CD3 receptor on human cells; assay: flow cytometry on human cells (Example 5)

B1: Abz497 ScFV (scFv)
scFv: QIQLVQSGAEVAKPGASVKVSCKASGYTFTRYTMHWVRQRPGQGLEWIGYINPSRGYTNYNQKFKDRATLTTDKSTSTAYMELSSLTSEDTAVYYCARYYDDHYCLDYWGQGTTVTVSSVEGGSGGSGGSGGSGGVDDIQLTQSPSSLSASVGDRVTITCRASSSVHYMNWYQQKSGTAPKRWIYDTSKVASGVPYRFSGSGSGTSYTLTISSLQPEDAATYYCQQWSSNPLTFGGGTKVEIKR
notes: also called pH-dependent ScFV antibody variant; not shown: FLAG tag at the C terminus
B1: binds [1].

B2: Abz494 ScFV (scFv)
scFv: QIQLVQSGAEVAKPGASVKVSCKASGYTFTRYTMHWVRQRPGQGLEWIGYINPSRGYTNYNQKFKDRATLTTDKSTSTAYMELSSLTSEDTAVYYCARYYDDHYCLDYWGQGTTVTVSSVEGGSGGSGGSGGSGGVDDIQLTQPPSSLSASVGDRVTITCRASSSVHYMNWYQQKSGTAPKRWIYDTSKVASGVPYRFSGSGSGTSYTLTISSLQPEDAATYYCQQWSSNPLTFGGGTKVEIKR
notes: as for B1
B2: binds [2].
